# Measurements as given in publication PMC3610634 (PLoS Genetics, 2013).
# Molecular target: the molecule itself
# Test: solubility assay (sedimentation) + TEM; recombinant fibrils in 50 mM HEPES, pH 7.5; solubility assay 16.000 g, 30 min, 4°C; negative staining with 1% uranyl acetate
protein,measurement,value
"recombinant full-length Ure2p fibrils (natural protein, yeast, UniProt P23202 1-354, looked up) MMNNNGNQVSNLSNALRQVNIGNRNSNTTTDQSNINFEFSTGVNNNNNNNSSSNNNNVQNNNSGRNGSQNNDNENNIKNTLEQHRQQQQAFSDMSHVEYSRITKFFQEQPLEGYTLFSHRSAPNGFKVAIVLSELGFHYNTIFLDFNLGEHRAPEFVSVNPNARVPALIDHGMDNLSIWESGAILLHLVNKYYKETGNPLLWSDDLADQSQINAWLFFQTSGHAPMIGQALHFRYFHSQKIASAVERYTDEVRRVYGVVEMALAERREALVMELDTENAAAYSAGTTPMSQSRFFDYPVWLVGDKLTIADLAFVPWNNVVDRIGINIKIEFPEVYKWTKHMMRRPAVIKALRGE",binding result,binds
